In patent US20110039770A1 (PHARMAGAP, published 2011):
Where no end group is shown, it is not given here.

What was measured:
[1] = target: PKC-βI, purified isoform (UniProt P05771-1 1-671); assay: cell-based or functional assay
[2] = target: PKC-βII, purified isoform (UniProt P05771-2 1-673); assay: cell-based or functional assay
[3] = target: T1, PKC-ε, purified isoform (UniProt Q02156 1-737); assay: cell-based or functional assay
T1 sequence (looked up): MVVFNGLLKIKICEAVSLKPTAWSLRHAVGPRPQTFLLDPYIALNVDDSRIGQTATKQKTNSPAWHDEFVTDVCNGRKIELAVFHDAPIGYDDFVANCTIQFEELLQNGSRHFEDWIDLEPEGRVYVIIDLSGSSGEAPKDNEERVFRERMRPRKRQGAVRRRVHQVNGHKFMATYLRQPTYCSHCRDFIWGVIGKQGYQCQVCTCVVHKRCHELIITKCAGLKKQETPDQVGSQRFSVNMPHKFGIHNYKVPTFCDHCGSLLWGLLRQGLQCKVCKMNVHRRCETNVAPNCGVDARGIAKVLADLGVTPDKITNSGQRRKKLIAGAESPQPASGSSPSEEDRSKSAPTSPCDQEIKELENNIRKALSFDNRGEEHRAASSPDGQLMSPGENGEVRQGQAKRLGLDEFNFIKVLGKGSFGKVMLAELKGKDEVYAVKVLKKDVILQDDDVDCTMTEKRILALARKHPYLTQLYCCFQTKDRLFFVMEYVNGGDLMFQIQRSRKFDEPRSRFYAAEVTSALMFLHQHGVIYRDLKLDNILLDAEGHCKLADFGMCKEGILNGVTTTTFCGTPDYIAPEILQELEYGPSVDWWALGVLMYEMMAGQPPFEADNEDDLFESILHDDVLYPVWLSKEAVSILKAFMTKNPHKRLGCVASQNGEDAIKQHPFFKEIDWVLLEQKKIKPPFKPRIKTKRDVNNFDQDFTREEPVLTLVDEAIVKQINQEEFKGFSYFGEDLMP

[4] = target: PKC-α, purified isoform (UniProt P17252 1-672); assay: cell-based or functional assay
[5] = target: T2, PKC-βII (purified isoform) (Homo sapiens (Human), UniProt P05771 2-621); assay: competitive ELISA, coated purified PKC-βII, vs anti-PKC βII (SC-210); PRE 100 µM
T2 construct: also called PKC-beta II; PKC beta 2
Method: (§1) Greiner 96 well ELISA plates were coated with the appropriate PKC isoform diluted in PBSN (PBS with Calcium/Magnesium+0.05% Sodium azide w/w). 50 μL/well at 250 ng/mL was used. Control wells contained PBSN only. Plates were incubated overnight at 4° C.
(§2) The plates were washed 3 times with 200 μL of dH₂O per well, then 100 μL of blocking solution was added per well and the plate incubated for 1 h at 37° C. The washing steps with dH₂O were repeated and 50 μL of the appropriate PRE solution (PRE stock solution [20 mM in DMSO] diluted in PBSN) was added and the plate incubated for 1 h at room temperature.
(§3) 50 μL of 1:1000 dilution of Alkaline Phosphatase (AP) conjugated antibody (anti-rabbit for all except zeta, which was anti-goat) was then added and the plate incubated for 1 h at room temperature. Washing with dH₂O was then repeated. Finally, 100 μL of pNPP solution in pNPP buffer (2 mM MgCl₂, 100 mM Sodium bicarbonate in water, pH 9.8) was added to all wells and incubated for 8 minutes for α, βI, βII ε, and ζ, or for 15-20 mins for δ (until sufficient coloration is observed). The reaction was stopped by addition of Stop solution (2N NaOH) and the absorbance at 405 nm was read on a Galaxy Plate reader.

[6] = target: T3, PKC-βI (purified isoform) (Homo sapiens (Human), UniProt P05771 2-671); assay: competitive ELISA, coated purified PKC-βI, vs anti-PKC βI (SC-209); PRE 200 µM
T3 construct: also called PKC-beta I; PKC beta 1
Method: as §1, §2, §3

[7] = target: T4, PKC-α (purified isoform) (Homo sapiens (Human), UniProt P17252 2-672); assay: competitive ELISA, coated purified PKC-α, vs anti-PKC α (SC-208); PRE 100 µM
T4 construct: also called purified PKC-alpha; commercially purified PKC-alpha
Method: as §1, §2, §3

[8] = target: T2, PKC-βII (purified isoform); assay: competitive ELISA, coated purified PKC-βII, vs anti-PKC βII (SC-210); PRE 50 µM
Method: as §1, §2, §3

[9] = target: T3, PKC-βI (purified isoform); assay: competitive ELISA, coated purified PKC-βI, vs anti-PKC βI (SC-209); PRE 100 µM
Method: as §1, §2, §3

[10] = target: T4, PKC-α (purified isoform); assay: competitive ELISA, coated purified PKC-α, vs anti-PKC α (SC-208); PRE 50 µM
Method: as §1, §2, §3

[11] = target: T4, PKC-α (purified isoform); assay: competitive ELISA, coated purified PKC-α, vs anti-PKC α (SC-208); PRE 200 µM
Method: as §1, §2, §3

[12] = target: T5, PKC-δ (purified isoform); assay: competitive ELISA, coated purified PKC-δ, vs anti-PKC δ (SC-213); PRE 200 µM
T5 construct: also called PKC-delta
Method: as §1, §2, §3

[13] = target: T5, PKC-δ (purified isoform); assay: competitive ELISA, coated purified PKC-δ, vs anti-PKC δ (SC-213); PRE 100 µM
Method: as §1, §2, §3

[14] = target: T2, PKC-βII (purified isoform); assay: competitive ELISA, coated purified PKC-βII, vs anti-PKC βII (SC-210); PRE 200 µM
Method: as §1, §2, §3

[15] = target: T5, PKC-δ (purified isoform); assay: competitive ELISA, coated purified PKC-δ, vs anti-PKC δ (SC-213); PRE 50 µM
Method: as §1, §2, §3

[16] = target: T3, PKC-βI (purified isoform); assay: competitive ELISA, coated purified PKC-βI, vs anti-PKC βI (SC-209); PRE 50 µM
Method: as §1, §2, §3

Chain of PKC-βI, purified isoform (P05771 whole entry, canonical isoform): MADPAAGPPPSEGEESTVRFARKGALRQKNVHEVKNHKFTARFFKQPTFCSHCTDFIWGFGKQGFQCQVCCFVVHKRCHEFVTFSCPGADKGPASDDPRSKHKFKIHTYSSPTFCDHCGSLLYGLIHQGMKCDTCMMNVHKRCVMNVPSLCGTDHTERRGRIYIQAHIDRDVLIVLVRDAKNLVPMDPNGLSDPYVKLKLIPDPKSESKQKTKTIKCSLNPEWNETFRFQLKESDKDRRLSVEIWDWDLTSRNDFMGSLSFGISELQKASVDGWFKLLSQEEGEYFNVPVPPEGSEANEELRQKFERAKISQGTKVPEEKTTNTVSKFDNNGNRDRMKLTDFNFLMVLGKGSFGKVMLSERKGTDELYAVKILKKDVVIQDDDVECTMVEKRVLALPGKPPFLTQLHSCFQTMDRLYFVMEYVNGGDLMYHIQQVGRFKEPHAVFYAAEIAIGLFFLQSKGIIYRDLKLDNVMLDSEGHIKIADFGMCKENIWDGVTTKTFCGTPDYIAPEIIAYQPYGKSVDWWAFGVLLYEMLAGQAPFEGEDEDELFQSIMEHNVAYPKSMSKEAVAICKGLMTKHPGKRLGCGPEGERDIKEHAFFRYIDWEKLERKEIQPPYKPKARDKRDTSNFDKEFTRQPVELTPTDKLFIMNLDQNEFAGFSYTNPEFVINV
T2 sequence (P05771 other isoform, or with tags, fused parts or gaps limits assumed): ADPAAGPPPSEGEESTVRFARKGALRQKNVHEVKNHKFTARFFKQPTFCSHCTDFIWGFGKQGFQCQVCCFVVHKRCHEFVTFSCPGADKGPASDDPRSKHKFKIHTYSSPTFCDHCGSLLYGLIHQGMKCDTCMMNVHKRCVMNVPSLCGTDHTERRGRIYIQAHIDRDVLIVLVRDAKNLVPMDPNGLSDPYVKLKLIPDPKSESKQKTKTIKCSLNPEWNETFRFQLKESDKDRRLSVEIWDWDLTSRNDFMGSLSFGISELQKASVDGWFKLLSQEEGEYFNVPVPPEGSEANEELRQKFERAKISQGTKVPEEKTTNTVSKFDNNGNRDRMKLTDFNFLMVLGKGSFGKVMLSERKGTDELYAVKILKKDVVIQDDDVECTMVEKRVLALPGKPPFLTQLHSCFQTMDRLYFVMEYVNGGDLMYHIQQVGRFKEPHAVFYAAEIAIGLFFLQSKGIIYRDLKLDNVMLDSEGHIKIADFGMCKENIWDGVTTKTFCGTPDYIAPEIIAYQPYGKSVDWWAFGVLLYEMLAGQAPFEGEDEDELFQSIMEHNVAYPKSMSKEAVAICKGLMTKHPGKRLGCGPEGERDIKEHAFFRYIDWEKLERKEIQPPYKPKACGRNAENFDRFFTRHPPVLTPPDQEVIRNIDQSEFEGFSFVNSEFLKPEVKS
Chain of PKC-βII, purified isoform (P05771 other isoform, or with tags, fused parts or gaps limits assumed): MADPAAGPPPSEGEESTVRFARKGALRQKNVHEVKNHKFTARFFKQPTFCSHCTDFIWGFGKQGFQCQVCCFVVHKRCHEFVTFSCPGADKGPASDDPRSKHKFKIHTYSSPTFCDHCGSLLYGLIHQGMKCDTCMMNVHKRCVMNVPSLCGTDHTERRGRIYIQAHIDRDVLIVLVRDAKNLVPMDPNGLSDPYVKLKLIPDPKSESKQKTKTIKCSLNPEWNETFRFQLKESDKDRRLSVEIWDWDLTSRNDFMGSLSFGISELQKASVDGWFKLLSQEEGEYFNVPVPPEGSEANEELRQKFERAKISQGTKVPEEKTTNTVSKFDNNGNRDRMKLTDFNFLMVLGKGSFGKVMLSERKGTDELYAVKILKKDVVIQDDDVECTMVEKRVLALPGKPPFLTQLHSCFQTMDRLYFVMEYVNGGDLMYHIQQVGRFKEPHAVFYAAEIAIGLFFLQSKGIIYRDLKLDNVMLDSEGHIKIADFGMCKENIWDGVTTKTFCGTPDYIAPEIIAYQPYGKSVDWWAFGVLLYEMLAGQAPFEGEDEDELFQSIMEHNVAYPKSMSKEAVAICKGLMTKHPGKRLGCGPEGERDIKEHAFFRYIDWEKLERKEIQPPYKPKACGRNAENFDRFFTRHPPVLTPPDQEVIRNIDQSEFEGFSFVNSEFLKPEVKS
T5 sequence (Q05655 whole entry, stated change not applied, canonical isoform): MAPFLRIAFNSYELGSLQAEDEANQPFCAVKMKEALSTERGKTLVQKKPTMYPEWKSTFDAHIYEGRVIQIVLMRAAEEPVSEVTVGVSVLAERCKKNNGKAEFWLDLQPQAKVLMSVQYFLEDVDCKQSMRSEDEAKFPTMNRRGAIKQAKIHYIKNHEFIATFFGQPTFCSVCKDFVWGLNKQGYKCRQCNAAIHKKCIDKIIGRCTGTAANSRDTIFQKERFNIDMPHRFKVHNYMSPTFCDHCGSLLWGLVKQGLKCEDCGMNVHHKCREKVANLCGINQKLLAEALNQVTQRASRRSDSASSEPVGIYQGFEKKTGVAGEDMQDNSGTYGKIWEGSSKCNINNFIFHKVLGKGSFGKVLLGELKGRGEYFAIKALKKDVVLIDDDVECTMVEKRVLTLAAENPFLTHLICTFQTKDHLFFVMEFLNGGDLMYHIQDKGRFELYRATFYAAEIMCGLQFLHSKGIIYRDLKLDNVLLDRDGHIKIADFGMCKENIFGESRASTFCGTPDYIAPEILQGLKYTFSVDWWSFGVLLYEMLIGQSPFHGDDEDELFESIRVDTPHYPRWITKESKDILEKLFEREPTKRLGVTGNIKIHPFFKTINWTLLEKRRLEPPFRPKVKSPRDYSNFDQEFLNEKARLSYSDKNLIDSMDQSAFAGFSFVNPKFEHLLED
T3 sequence (P05771 2-671 limits assumed): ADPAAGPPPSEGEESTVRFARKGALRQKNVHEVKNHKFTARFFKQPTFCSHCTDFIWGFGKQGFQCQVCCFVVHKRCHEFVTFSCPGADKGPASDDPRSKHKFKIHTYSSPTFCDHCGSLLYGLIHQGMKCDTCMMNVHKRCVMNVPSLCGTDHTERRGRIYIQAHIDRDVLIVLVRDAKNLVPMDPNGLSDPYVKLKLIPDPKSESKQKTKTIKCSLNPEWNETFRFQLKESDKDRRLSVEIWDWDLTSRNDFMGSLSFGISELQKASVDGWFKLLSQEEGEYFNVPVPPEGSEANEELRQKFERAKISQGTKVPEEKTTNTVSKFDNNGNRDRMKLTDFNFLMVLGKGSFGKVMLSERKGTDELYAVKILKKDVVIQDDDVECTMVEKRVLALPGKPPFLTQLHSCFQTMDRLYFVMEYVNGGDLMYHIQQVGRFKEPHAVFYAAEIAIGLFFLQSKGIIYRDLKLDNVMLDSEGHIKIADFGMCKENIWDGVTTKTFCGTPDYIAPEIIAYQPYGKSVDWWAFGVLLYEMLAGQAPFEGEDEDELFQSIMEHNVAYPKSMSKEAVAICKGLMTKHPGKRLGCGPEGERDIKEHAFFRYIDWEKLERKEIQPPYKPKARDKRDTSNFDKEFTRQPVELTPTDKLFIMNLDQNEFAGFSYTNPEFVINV

## FRRK(adenine PNA)FRL [compound PKI 3]
[1]
  % Inhibition of PKC activity at 150 µM: 37%
  % Inhibition of PKC activity at 300 µM: 76%
  % Inhibition of PKC activity at 600 µM: 80%
[2]
  % Inhibition of PKC activity at 150 µM: 31%
  % Inhibition of PKC activity at 300 µM: 83%
  % Inhibition of PKC activity at 600 µM: 81%
[3]
  % Inhibition of PKC activity at 150 µM: 38%
  % Inhibition of PKC activity at 300 µM: 53%
  % Inhibition of PKC activity at 600 µM: 68%
[4]
  % Inhibition of PKC activity at 150 µM: 47%
  % Inhibition of PKC activity at 300 µM: 51%
  % Inhibition of PKC activity at 600 µM: 82%

B1: PRE 12 (peptide)
peptide: Ac-KDAQNLI-NH2
notes: Ac-KDAQNLI-NH2; also called peptide PRE 12
[5]
  relative binding capacity (100-%n, DMSO subtracted): 0%
[6]
  relative binding capacity (100-%n, DMSO subtracted): 0%
[7]
  relative binding capacity (100-%n, DMSO subtracted): 5.16%
[8]
  relative binding capacity (100-%n, DMSO subtracted): 4.55%
[9]
  relative binding capacity (100-%n, DMSO subtracted): 0%
[10]
  relative binding capacity (100-%n, DMSO subtracted): 3.29%
[11]
  relative binding capacity (100-%n, DMSO subtracted): 0%
[12]
  relative binding capacity (100-%n, DMSO subtracted): 23.5%
[13]
  relative binding capacity (100-%n, DMSO subtracted): 1.02%
[14]
  relative binding capacity (100-%n, DMSO subtracted): 0%
[15]
  relative binding capacity (100-%n, DMSO subtracted): 2.26%
[16]
  relative binding capacity (100-%n, DMSO subtracted): 0.79%

B2: PRE 13 (peptide)
peptide: Ac-RDAQNLI-NH2
notes: Ac-RDAQNLI-NH2; also called peptide PRE 13
[5]
  relative binding capacity (100-%n, DMSO subtracted): 1.63%
[6]
  relative binding capacity (100-%n, DMSO subtracted): 0%
[7]
  relative binding capacity (100-%n, DMSO subtracted): 0%
[8]
  relative binding capacity (100-%n, DMSO subtracted): 0%
[9]
  relative binding capacity (100-%n, DMSO subtracted): 0%
[10]
  relative binding capacity (100-%n, DMSO subtracted): 0%
[11]
  relative binding capacity (100-%n, DMSO subtracted): 0%
[12]
  relative binding capacity (100-%n, DMSO subtracted): 17.9%
[13]
  relative binding capacity (100-%n, DMSO subtracted): 0.79%
[14]
  relative binding capacity (100-%n, DMSO subtracted): 0%
[15]
  relative binding capacity (100-%n, DMSO subtracted): 0%
[16]
  relative binding capacity (100-%n, DMSO subtracted): 0%
